Measurements as given in US20240092922A1 (EUCURE BEIJING BIOPHARMA, published 2024).

T1: monkey (Rhesus macaque) 4-1BB (r4-1BB) on transfected CHO cells (monkey (Rhesus macaque), UniProt Q07011 24-255 (human entry))
T1 construct: also called rm4-1BB; CHO-r4-1BB
T1 chain: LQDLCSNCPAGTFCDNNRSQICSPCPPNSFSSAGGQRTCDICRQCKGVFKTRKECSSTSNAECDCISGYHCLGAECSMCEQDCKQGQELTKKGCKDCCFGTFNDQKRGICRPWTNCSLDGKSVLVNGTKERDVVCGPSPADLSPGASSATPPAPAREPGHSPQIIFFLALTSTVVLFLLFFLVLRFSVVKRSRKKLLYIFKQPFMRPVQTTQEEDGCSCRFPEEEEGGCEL


Assays:
[1] = biological target: T2, human 4-1BB (h4-1BB) on transiently transfected CHO cells (human, UniProt Q07011 24-255); experiment: flow cytometry, CHO cells transfected with human 4-1BB, antibody at 0.01 µg/ml
T2 construct: also called TNFRSF9; CD137
Procedure: (§1) 25 μl CHO cells transiently transfected with human 4-1BB were added to each well in a plate. The purified antibodies were titrated to final concentrations of 10, 1, 0.1, 0.01, 0.001 μg/ml. The titrated antibodies were added to each well at 4° C. and incubated for 30 minutes.
(§2) After being washed with phosphate-buffered saline (PBS) (1200 rpm, 5 minutes) twice, 50 μl of FITC labeled anti-mouse IgG Fc antibody (anti-mIgG Fc-FITC) at 1:100 dilution was added into each well, and incubated for 30 minutes at 4° C., followed by PBS wash (1200 rpm, 5 minutes). The signal for FITC was detected by flow cytometry.

[2] = biological target: T2, human 4-1BB (h4-1BB) on transiently …; experiment: flow cytometry, CHO cells transfected with human 4-1BB, antibody at 1 µg/ml
Procedure: as §1, §2

[3] = biological target: T3, chimeric (mouse and human) 4-1BB (c4-1BB) on transfected CHO cells (chimeric (mouse and human)); experiment: flow cytometry on transfected CHO cells;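 further: antibodies tested at 1 µg/ml on CHO cells for 30 min at 4 °C, binding detected with FITC- or PE-labeled anti-mouse IgG Fc secondary by flow cytometry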
T3 construct: also called chi4-1BB; CHO-c4-1BB
Procedure: (§3) 25 μl CHO cells were added to each well. 25 μl purified anti-h4-1BB antibodies (1 μg/ml) were added to each well and were incubated at 4° C. for 30 minutes.
(§4) After being washed with PBS (1200 rmp, 5 min) twice, 50 μl of FITC labeled anti-mouse IgG Fc antibody (anti-mIgG Fc-FITC) was added into each well at 1:100 dilution, followed by incubating at 4° C. for 30 minutes, and then PBS wash (1200 rmp, 5 min). In some cases, PE labeled anti-mouse IgG Fc antibody (anti-mIgG Fc-PE) was used to label the antibody instead, and was added into each tested well at 1:500 dilution. The signals for FITC and PE were determined by flow cytometry.

[4] = biological target: T2, human 4-1BB (h4-1BB) on transiently …; experiment: flow cytometry, CHO cells transfected with human 4-1BB, antibody at 0.001 µg/ml
Procedure: as §1, §2

[5] = biological target: T4, mouse 4-1BB (m4-1BB) on transfected CHO cells (mouse, UniProt P20334 24-256); experiment: flow cytometry on CHO cells transfected with mouse 4-1BB
T4 construct: also called CHO-m4-1BB
Procedure: as §3, §4

[6] = biological target: T2, human 4-1BB (h4-1BB) on transiently …; experiment: flow cytometry, CHO cells transfected with human 4-1BB, antibody at 10 µg/ml
Procedure: as §1, §2

[7] = biological target: T2, human 4-1BB (h4-1BB) on transiently …; experiment: flow cytometry, CHO cells transfected with human 4-1BB, antibody at 0.1 µg/ml
Procedure: as §1, §2

[8] = biological target: T1, monkey (Rhesus macaque) 4-1BB (r4-1BB) …; experiment: flow cytometry on transfected CHO cells;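 further: antibodies tested at 1 µg/ml on CHO cells for 30 min at 4 °C, binding detected with FITC- or PE-labeled anti-mouse IgG Fc secondary by flow cytometry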
Procedure: as §3, §4

percentage of cells with FITC signal [1] [%]	percentage of cells with FITC signal [2] [%]	binding result [3]	percentage of cells with FITC signal [4] [%]	binding result [5]	percentage of cells with FITC signal [6] [%]	percentage of cells with FITC signal [7] [%]	binding result [8]	Binder
0.89	40.9	binds	0.25	no binding (tested: 1 µg/ml)	46.6	17.1		56-2A6 (antibody, V domains shown, mouse antibody purified from ascites) VH: QIQLVQSGPELKKPGETVKISCKASGYTFTNYGMNWVKQAPGKGFKWMGWINTYTGEPTYADDFKGRFAFSLEISASTAYLQINNLKNEDTATYFCARRDYLGAMDYWGQGTSVTVSS VL: ENVLTQSPAIMSASPGEKVTMTCRASSSVSSSYLHWYQQKSGASPKLWIYSTSNLASGVPARFSGSGSGTSYSLTISSVEAEDAATYYCQQYSAYLYTFGGGTKLEIK
26.2	62.9	binds	0.183	no binding (tested: 1 µg/ml)	58.5	52.3	binds	69-3C2 (antibody, V domains shown, mouse antibody purified from ascites) VH: DVQLVESGGGLVQPGGSRKLSCAASGFSFSSFGMHWMRQAPEKGLEWVAYISSGSSAIYYADTVKGRFTISRDNPKNTLFLQMTSLRSEDTAMYYCARDWVDYWGQGTTLTVSS VL: DIQMTQSPASLSVSVGETVTITCRASENIYSNLVWYQQKQGKSPQLLVYTATKLTNGVPSRFSGSGSGTQYSLKINSLQSEDFGTYYCQHFWDTPYTFGGGTKLEMK
17	60.1	binds	3.43	no binding (tested: 1 µg/ml)	63	51.1	binds	61-6A7 (antibody, V domains shown, mouse antibody purified from ascites) VH: EVQLQQSGAELVRPGALVKLSCKASGFNIKDYYMHWVKRRPEQGLEWIGWIDPENGNTIYDPKFQDKASITADTSSNTAYLQLSSLTSEDTAVYYCAEGLPWYFDYWGQGTTLTVSS VL: QIILTQSPALMSASPGEKVTMTCSASSSVSDMNWYQQKPRSSPTPWIYLTSNLSSGVPDRFSGSGSGTSYSLTISSMEAEDAATYYCQQWSGNPLTFGAGTRLELK
12.7	58.4	binds	0.703	no binding (tested: 1 µg/ml)	57.6	50	binds	45-7E9 (antibody, V domains shown, mouse antibody purified from ascites) VH: QVQLKQSGPGLVQPSQSLSITCTVSGFSLTTYGVHWVRQPPGKGLEWLGVIWSDGNTDYNDAFISRLSITKDNSTSQVFFKMNGLQADDTAIYYCARNSITSVSFDCWGQGTTLTVSS VL: DIVMTQSQKFMSTSVGDRVSVTCKASQNVGTTVAWYQQRPGQSPKALICSASYRYSGVPDRFTGSGSGTDFTLTISNVQSEDLAEYFCQQYNSYPLTFGSGTKLEIK
9.06	60.1	binds	1.52	no binding (tested: 1 µg/ml)	58.9	49.8	binds	45-8E2 (antibody, V domains shown, mouse antibody purified from ascites) VH: EVKLLESGGGLVQPGGSLKLSCAASGFDFSRYWMSWVRQAPGKGLEWIGEIHPDSSAINYTPSLKDKFIISRDNAKNTLYLQMSKVRSEDTALYYCARSYYGRVFDYWGQGTTLTVSS VL: DIVMTQSPATLSVTPGDRVSLSCRASQSISDYLHWYQQKSHESPRLLIKYASQSISGIPPRFSGSGSGSDFTLSINSVEPEDVGMYYCQDGHSFPPTFGAGTKLELK
0.571	52.3	binds	0.375	no binding (tested: 1 µg/ml)	53.6	36.1	binds	55-8F6 (antibody, V domains shown, mouse antibody purified from ascites) VH: QVQLQQPGAELVRPGASVKLSCKASGYIFTSYWINWVKQRPGQGLEWIGNIYPSDSYTNYNQKFKDKATLTVDKSSSTAYMQLSSPTSEDSAVYYCTRFHYGSSPFDNWGQGTTLTVSS VL: DIQMTQSTSSLSASLGDRVTISCRASQDISHYLNWYQQKPDGTVKLLIYYTSRLHSGVPSRFSGSGSGTDYSLTISNLEQEDFATYFCQQGHTLPRTFGGGTKLEIK
6.21	56.1	binds	1.38	no binding (tested: 1 µg/ml)	58.6	43.9	binds	45-8F1 (antibody, V domains shown, mouse antibody purified from ascites) VH: EVQLQQSGTVLARPGASVKMSCKASGYSFTSYWMHWVKQRPGQGLEWIGVIYPGNSDTSYNQKFKGKAKLTAVTSASTAYMDLSSLTNEDSAVYYCTRGITTAPDYWGQGTTLTVSS VL: NIVMTQSPKSMSMSVGERVTLSCKASENVGIHVSWYQQKPEQSPKLLIYGASSGYNGVPDRFTGSGSATDFTLTISSVQPEDLADYHCGQTYSYPFTFGSGTKLEIK
47.4	73.4	binds		no binding (tested: 1 µg/ml)	80.5	70.8	binds	29-6A5 (antibody, V domains shown, mouse antibody purified from ascites) VH: QVQLQQPGAELVRPGASVKLSCKASGYTFSSYWINWVKQRPGQGLEWIGNIYPSDSYTNYNQKFKDKATLTVDKSSSTAYMQLSSPTSDDSAVYYCTRTWEFYYDSVFDYWGQGTTLTVSS VL: DIKMTQSPSSMYASLGERVTITCKASQDINSYLSWFQQKPGKSPKTLIYRANRLVDGVPSRFSGSGSGQDYSLTISSLEYEDMGIYYCLQYDELPPTFGGGTKLEIK
0.622	51.8	binds	0.504	no binding (tested: 1 µg/ml)	62.2	12	binds	45-2B3 (antibody, V domains shown, mouse antibody purified from ascites) VH: QVQLQQSGPELVKPGASVKISCKTSGYAFSTSWMNWVKQRPGQGLEWIGRIYPGDGDTDYNGRFKGKATLTADKSSSTAYLQLSSLTSVDSAVYFCARLDGYYEVFYFDYWGQGTTLTVSS VL: not shown
0.96	55.1	binds	1	no binding (tested: 1 µg/ml)	57.9	25.9	binds	45-7G9 (antibody, V domains shown, mouse antibody purified from ascites) VH: QVQLQQPGSALVRPGASVKLSCKASGYTFSNYWIHWVKQRHGQGLEWIGNIYPASDYTNYDEKFKNKGTLTVDTSSSTAYMHLSSLTSEDSAVYYCSRGYFGSLDYWGQGTSVTVSA VL: DILLTQSPAILSVNPGERVSFSCRASQPIGTGIHWYQQRTNGSPRLLIKSASESISGIPSRFSGSGSGTDFTLTINNVESDDVGDYYCQQSYSWPTTFGGGTKLKIN
0.445	45	binds	0.111	no binding (tested: 1 µg/ml)	49.8	16.5	binds	54-8B11 (antibody, V domains shown, mouse antibody purified from ascites) VH: QIQLVQSGPELKKPGETVKISCKASKFTFTNYGMNWVKQAPGKALKWMGWINTYTGEPTYADDFKGRFDFSLETSATTAYLQINNLKNEDTATYFCARREYYPWVFVYWGQGTLVTVSA VL: ENVLTQSPAIMSASPGEKVTMTCSASSSVSYMHWYQQKSSTSPKLWIYDTSKLASGVPGRFSGSGSGNSYSLTISSMEAEDVATYYCFQGSGYPLTFGGGTKLEIK
1.2	49.3	binds	1.86	no binding (tested: 1 µg/ml)	56.2	10.4	binds	45-4B9 (antibody, V domains shown, mouse antibody purified from ascites) VH: EVQLQQSGPELVKPGASVKMSCKASGYTFTTYVMYWVKQRPGQGLEWIGYINPYNDDIRYNEKFKGKATLTSDRSSSTAYMELSSLTSEDSAVYLCARQGGDYWGQGTILTVSS VL: DVQITQSPSYLAASPGETITVNCRASKNINKYLAWYQEKPGKTNKLLIYSGSTLQSGIPSRFSGSGSGTDFTLTISSLEPEDFAVYHCQQYNEYPLTFGAGTKLEMK
